Patent publication US20250218531A1 (ABSCI, published 2025)
Where two headings read alike, the source gives them in different places.

How the values were obtained:
[1] = target: T1, human epidermal growth factor receptor 2 (HER2) extracellular domain (human, UniProt P04626 23-629); experiment: SPR
[2] = target: T1, human epidermal growth factor receptor …; experiment: SPR (Carterra LSA), Fab captured, HER2 ECD as analyte
[3] = target: T1, human epidermal growth factor receptor …; experiment: SPR, table row 29
[4] = target: T1, human epidermal growth factor receptor …; experiment: SPR, table row 2
[5] = target: T1, human epidermal growth factor receptor …; experiment: SPR, table row 30
[6] = target: T1, human epidermal growth factor receptor …; experiment: SPR, table row 34
[7] = target: T1, human epidermal growth factor receptor …; experiment: SPR, table row 1
[8] = target: T1, human epidermal growth factor receptor …
[9] = target: T1, human epidermal growth factor receptor …; experiment: SPR, table row 3
[10] = target: T1, human epidermal growth factor receptor …; experiment: SPR, table row 26
[11] = target: T1, human epidermal growth factor receptor …; experiment: SPR, table row 7
[12] = target: T1, human epidermal growth factor receptor …; experiment: SPR, table row 33
[13] = target: T1, human epidermal growth factor receptor …; experiment: SPR, table row 9
[14] = target: T1, human epidermal growth factor receptor …; experiment: SPR, table row 4
[15] = target: T1, human epidermal growth factor receptor …; experiment: SPR, table row 18
[16] = target: T1, human epidermal growth factor receptor …; experiment: SPR, table row 8
[17] = target: T1, human epidermal growth factor receptor …; experiment: SPR, table row 5
[18] = target: T1, human epidermal growth factor receptor …; experiment: SPR, table row 10
[19] = target: T1, human epidermal growth factor receptor …; experiment: SPR, table row 21
[20] = target: T1, human epidermal growth factor receptor …; experiment: SPR, table row 27

B1: AI Design 1 (multi-step AI designed trastuzumab HCDR1/2/3 variant) (Fab, V domains shown)
VH: EVQLVESGGGLVQPGGSLRLSCAASGFNVSSSYIHWVRQAPGKGLEWVARIYPENGSTRYADSVKGRFTISADTSKNTAYLQMNSLRAEDTAVYYCSRYSYYGGYAFDYWGQGTLVTVSS
VL: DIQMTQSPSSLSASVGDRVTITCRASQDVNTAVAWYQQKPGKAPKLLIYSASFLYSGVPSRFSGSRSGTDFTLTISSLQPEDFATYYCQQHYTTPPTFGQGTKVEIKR
notes: Fab format; also called GFNVSSSY / IYPENGST / SRYSYYGGYAFDY
Kd [1]: 225 nM

B2: De novo trastuzumab HCDR3 variant ARYDYGYYIYVS (Fab, V domains shown)
VH: EVQLVESGGGLVQPGGSLRLSCAASGFNIKDTYIHWVRQAPGKGLEWVARIYPTNGYTRYADSVKGRFTISADTSKNTAYLQMNSLRAEDTAVYYCARYDYGYYIYVSWGQGTLVTVSS
VL: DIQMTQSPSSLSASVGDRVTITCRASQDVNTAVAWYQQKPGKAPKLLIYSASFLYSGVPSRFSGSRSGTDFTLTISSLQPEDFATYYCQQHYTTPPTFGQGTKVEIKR
notes: Fab format
log10(KD) [2]: -8.02 log10(M)

B3: Trast_Her2_58 (Fab, V domains shown)
VH: EVQLVESGGGLVQPGGSLRLSCAASGFNIKDTYIHWVRQAPGKGLEWVARIYPTNGYTRYADSVKGRFTISADTSKNTAYLQMNSLRAEDTAVYYCAKRDFGRDWFAYWGQGTLVTVSS
VL: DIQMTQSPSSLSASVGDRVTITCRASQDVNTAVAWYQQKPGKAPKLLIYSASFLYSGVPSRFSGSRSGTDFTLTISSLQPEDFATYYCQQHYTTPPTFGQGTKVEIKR
notes: also called HCDR3 AKRDFGRDWFAY
Kd [3]: 38.8 nM
koff [3]: 0.000582 s⁻¹
kon [3]: 15000 M⁻¹ s⁻¹

B4: Trast_Her2_12 (Fab, V domains shown)
VH: EVQLVESGGGLVQPGGSLRLSCAASGFNIKDTYIHWVRQAPGKGLEWVARIYPTNGYTRYADSVKGRFTISADTSKNTAYLQMNSLRAEDTAVYYCAGHWTYRFADTLWGQGTLVTVSS
VL: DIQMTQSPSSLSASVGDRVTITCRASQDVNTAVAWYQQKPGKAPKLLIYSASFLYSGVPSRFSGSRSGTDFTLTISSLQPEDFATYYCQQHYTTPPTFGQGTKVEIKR
notes: also called HCDR3 AGHWTYRFADTL
Kd [4]: ≤ 0.792 nM
koff [4]: ≤ 1e-05 s⁻¹
kon [4]: 12600 M⁻¹ s⁻¹

B5: Trast_Her2_231 (Fab, V domains shown)
VH: EVQLVESGGGLVQPGGSLRLSCAASGFNIKDTYIHWVRQAPGKGLEWVARIYPTNGYTRYADSVKGRFTISADTSKNTAYLQMNSLRAEDTAVYYCARFGISGYYWDVWGQGTLVTVSS
VL: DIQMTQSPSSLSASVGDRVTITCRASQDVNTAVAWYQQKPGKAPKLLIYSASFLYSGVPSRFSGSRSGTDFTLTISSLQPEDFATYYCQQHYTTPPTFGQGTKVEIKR
notes: also called HCDR3 ARFGISGYYWDV
Kd [5]: 43.3 nM
koff [5]: 0.00106 s⁻¹
kon [5]: 24500 M⁻¹ s⁻¹
Kd [6]: 64.4 nM
koff [6]: 0.0014 s⁻¹
kon [6]: 21800 M⁻¹ s⁻¹

B6: Trast_Her2_49 (Fab, V domains shown)
VH: EVQLVESGGGLVQPGGSLRLSCAASGFNIKDTYIHWVRQAPGKGLEWVARIYPTNGYTRYADSVKGRFTISADTSKNTAYLQMNSLRAEDTAVYYCAKGTSSWYNFGVWGQGTLVTVSS
VL: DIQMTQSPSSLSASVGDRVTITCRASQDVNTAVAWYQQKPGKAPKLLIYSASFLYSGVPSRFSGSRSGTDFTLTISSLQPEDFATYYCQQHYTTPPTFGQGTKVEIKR
notes: also called HCDR3 AKGTSSWYNFGV
Kd [7]: ≤ 0.517 nM
koff [7]: ≤ 1e-05 s⁻¹
kon [7]: 19300 M⁻¹ s⁻¹

B7: De novo trastuzumab HCDR3 variant ARYYYGFYYFDY (Fab, V domains shown)
VH: EVQLVESGGGLVQPGGSLRLSCAASGFNIKDTYIHWVRQAPGKGLEWVARIYPTNGYTRYADSVKGRFTISADTSKNTAYLQMNSLRAEDTAVYYCARYYYGFYYFDYWGQGTLVTVSS
VL: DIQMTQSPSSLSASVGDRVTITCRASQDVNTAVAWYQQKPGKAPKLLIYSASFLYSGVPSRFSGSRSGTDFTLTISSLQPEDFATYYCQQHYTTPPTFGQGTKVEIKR
notes: Fab format
log10(KD) [2]: -8.92 log10(M)

B8: Trast_Her2_52 (Fab, V domains shown)
VH: EVQLVESGGGLVQPGGSLRLSCAASGFNIKDTYIHWVRQAPGKGLEWVARIYPTNGYTRYADSVKGRFTISADTSKNTAYLQMNSLRAEDTAVYYCAKISRYYYGMDYWGQGTLVTVSS
VL: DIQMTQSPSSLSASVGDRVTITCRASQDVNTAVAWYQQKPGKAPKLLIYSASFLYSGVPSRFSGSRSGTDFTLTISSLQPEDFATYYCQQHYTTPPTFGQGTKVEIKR
notes: also called HCDR3 AKISRYYYGMDY
Kd [8]: 9.01 nM
koff [8]: 0.000127 s⁻¹
kon [8]: 14100 M⁻¹ s⁻¹
Kd [9]: 0.929 nM
koff [9]: 1e-05 s⁻¹
kon [9]: 10800 M⁻¹ s⁻¹

B9: Trast_Her2_70 (Fab, V domains shown)
VH: EVQLVESGGGLVQPGGSLRLSCAASGFNIKDTYIHWVRQAPGKGLEWVARIYPTNGYTRYADSVKGRFTISADTSKNTAYLQMNSLRAEDTAVYYCAKYDYYIYDFDIWGQGTLVTVSS
VL: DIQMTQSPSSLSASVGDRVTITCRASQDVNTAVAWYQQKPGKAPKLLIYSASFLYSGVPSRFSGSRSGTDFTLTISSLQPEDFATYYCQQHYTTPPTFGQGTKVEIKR
notes: also called HCDR3 AKYDYYIYDFDI
Kd [8]: 19.4 nM
koff [8]: 0.000369 s⁻¹
kon [8]: 19000 M⁻¹ s⁻¹
Kd [10]: 30.5 nM
koff [10]: 0.000284 s⁻¹
kon [10]: 9320 M⁻¹ s⁻¹

B10: Trast_Her2_56 (Fab, V domains shown)
VH: EVQLVESGGGLVQPGGSLRLSCAASGFNIKDTYIHWVRQAPGKGLEWVARIYPTNGYTRYADSVKGRFTISADTSKNTAYLQMNSLRAEDTAVYYCAKPYYFNYDLGVWGQGTLVTVSS
VL: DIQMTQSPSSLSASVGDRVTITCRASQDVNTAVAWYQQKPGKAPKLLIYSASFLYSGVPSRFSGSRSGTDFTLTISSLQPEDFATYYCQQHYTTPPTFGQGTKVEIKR
notes: also called HCDR3 AKPYYFNYDLGV
Kd [11]: 2.44 nM
koff [11]: 2.42e-05 s⁻¹
kon [11]: 9940 M⁻¹ s⁻¹
Kd [12]: 56.8 nM
koff [12]: 0.000933 s⁻¹
kon [12]: 16400 M⁻¹ s⁻¹

B11: AI Design 4 (multi-step AI designed trastuzumab HCDR1/2/3 variant) (Fab, V domains shown)
VH: EVQLVESGGGLVQPGGSLRLSCAASGFNIKDTWIHWVRQAPGKGLEWVARIDPANGYTRYADSVKGRFTISADTSKNTAYLQMNSLRAEDTAVYYCARVGGRGYYYYDYWGQGTLVTVSS
VL: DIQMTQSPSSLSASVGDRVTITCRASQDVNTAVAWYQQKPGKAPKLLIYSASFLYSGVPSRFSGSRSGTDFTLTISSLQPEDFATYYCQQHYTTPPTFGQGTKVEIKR
notes: Fab format; also called GFNIKDTW / IDPANGYT / ARVGGRGYYYYDY
Kd [1]: 394 nM

B12: AI Design 6 (multi-step AI designed trastuzumab variant, native HCDR1) (Fab, V domains shown)
VH: EVQLVESGGGLVQPGGSLRLSCAASGFNIKDTYIHWVRQAPGKGLEWVARIDPADGYTRYADSVKGRFTISADTSKNTAYLQMNSLRAEDTAVYYCAREGGYGYYAMDYWGQGTLVTVSS
VL: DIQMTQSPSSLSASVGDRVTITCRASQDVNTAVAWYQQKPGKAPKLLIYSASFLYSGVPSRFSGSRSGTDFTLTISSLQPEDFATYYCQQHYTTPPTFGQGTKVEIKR
notes: Fab format; also called GFNIKDTY / IDPADGYT / AREGGYGYYAMDY
Kd [1]: 160 nM

B13: Trast_Her2_50 (Fab, V domains shown)
VH: EVQLVESGGGLVQPGGSLRLSCAASGFNIKDTYIHWVRQAPGKGLEWVARIYPTNGYTRYADSVKGRFTISADTSKNTAYLQMNSLRAEDTAVYYCAKGWGVEPREFAYWGQGTLVTVSS
VL: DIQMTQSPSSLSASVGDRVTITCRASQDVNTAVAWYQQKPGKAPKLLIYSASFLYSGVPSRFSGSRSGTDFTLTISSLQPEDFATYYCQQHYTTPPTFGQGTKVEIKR
notes: also called HCDR3 AKGWGVEPREFAY
Kd [13]: 2.71 nM
koff [13]: 4.19e-05 s⁻¹
kon [13]: 15500 M⁻¹ s⁻¹

B14: AI Design 5 (multi-step AI designed trastuzumab HCDR1/2/3 variant) (Fab, V domains shown)
VH: EVQLVESGGGLVQPGGSLRLSCAASGFNFKDTYIHWVRQAPGKGLEWVARIYPANGYTRYADSVKGRFTISADTSKNTAYLQMNSLRAEDTAVYYCASDGGSYSYAFDYWGQGTLVTVSS
VL: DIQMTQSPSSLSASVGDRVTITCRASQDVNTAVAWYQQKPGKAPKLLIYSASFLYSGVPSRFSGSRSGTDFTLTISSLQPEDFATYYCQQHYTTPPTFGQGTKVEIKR
notes: Fab format; also called GFNFKDTY / IYPANGYT / ASDGGSYSYAFDY
Kd [1]: 642 nM

B15: AI Design 8 (multi-step AI designed trastuzumab variant, native HCDR1) (Fab, V domains shown)
VH: EVQLVESGGGLVQPGGSLRLSCAASGFNIKDTYIHWVRQAPGKGLEWVARIYPSNGYTRYADSVKGRFTISADTSKNTAYLQMNSLRAEDTAVYYCARYGGSYAYYFYYWGQGTLVTVSS
VL: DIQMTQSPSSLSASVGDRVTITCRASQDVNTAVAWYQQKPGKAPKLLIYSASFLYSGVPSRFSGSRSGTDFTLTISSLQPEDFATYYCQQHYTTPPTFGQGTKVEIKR
notes: Fab format; also called GFNIKDTY / IYPSNGYT / ARYGGSYAYYFYY
Kd [1]: 18.6 nM

B16: De novo trastuzumab HCDR3 variant TRYFFNGWYYFDV (Fab, V domains shown)
VH: EVQLVESGGGLVQPGGSLRLSCAASGFNIKDTYIHWVRQAPGKGLEWVARIYPTNGYTRYADSVKGRFTISADTSKNTAYLQMNSLRAEDTAVYYCTRYFFNGWYYFDVWGQGTLVTVSS
VL: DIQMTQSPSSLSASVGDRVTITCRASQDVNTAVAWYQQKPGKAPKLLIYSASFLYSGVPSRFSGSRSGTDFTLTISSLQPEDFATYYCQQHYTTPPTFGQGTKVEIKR
notes: Fab format
log10(KD) [2]: -9.03 log10(M)

B17: AI Design 9 (multi-step AI designed trastuzumab variant, native HCDR1 and HCDR2) (Fab, V domains shown)
VH: EVQLVESGGGLVQPGGSLRLSCAASGFNIKDTYIHWVRQAPGKGLEWVARIYPTNGYTRYADSVKGRFTISADTSKNTAYLQMNSLRAEDTAVYYCARYYGSSSYYFAYWGQGTLVTVSS
VL: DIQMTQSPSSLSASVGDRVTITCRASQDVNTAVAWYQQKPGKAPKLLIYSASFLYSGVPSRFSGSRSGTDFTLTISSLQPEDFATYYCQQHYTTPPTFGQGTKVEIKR
notes: Fab format; also called GFNIKDTY / IYPTNGYT / ARYYGSSSYYFAY
Kd [1]: 60.6 nM

B18: De novo trastuzumab HCDR3 variant ARYAGVERPGSFAY (Fab, V domains shown)
VH: EVQLVESGGGLVQPGGSLRLSCAASGFNIKDTYIHWVRQAPGKGLEWVARIYPTNGYTRYADSVKGRFTISADTSKNTAYLQMNSLRAEDTAVYYCARYAGVERPGSFAYWGQGTLVTVSS
VL: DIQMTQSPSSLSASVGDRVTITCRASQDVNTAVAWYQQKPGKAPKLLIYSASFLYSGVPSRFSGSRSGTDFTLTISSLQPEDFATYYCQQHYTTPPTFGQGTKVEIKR
notes: Fab format
log10(KD) [2]: -6.24 log10(M)

B19: Trast_Her2_131 (Fab, V domains shown)
VH: EVQLVESGGGLVQPGGSLRLSCAASGFNIKDTYIHWVRQAPGKGLEWVARIYPTNGYTRYADSVKGRFTISADTSKNTAYLQMNSLRAEDTAVYYCARDGRYGYQDYWGQGTLVTVSS
VL: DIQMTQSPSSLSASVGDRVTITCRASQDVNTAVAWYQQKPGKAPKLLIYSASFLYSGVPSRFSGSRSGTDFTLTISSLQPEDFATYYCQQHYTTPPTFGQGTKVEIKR
notes: also called HCDR3 ARDGRYGYQDY
Kd [14]: 1 nM
koff [14]: 1e-05 s⁻¹
kon [14]: 9990 M⁻¹ s⁻¹
Kd [15]: 8.06 nM
koff [15]: 0.000202 s⁻¹
kon [15]: 25000 M⁻¹ s⁻¹

B20: Trast_Her2_54 (Fab, V domains shown)
VH: EVQLVESGGGLVQPGGSLRLSCAASGFNIKDTYIHWVRQAPGKGLEWVARIYPTNGYTRYADSVKGRFTISADTSKNTAYLQMNSLRAEDTAVYYCAKNFLIGTRYWWGQGTLVTVSS
VL: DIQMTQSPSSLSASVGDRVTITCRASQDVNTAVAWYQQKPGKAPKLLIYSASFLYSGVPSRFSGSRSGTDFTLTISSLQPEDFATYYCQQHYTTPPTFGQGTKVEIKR
notes: also called HCDR3 AKNFLIGTRYW
Kd [16]: 2.68 nM
koff [16]: 4.11e-05 s⁻¹
kon [16]: 15400 M⁻¹ s⁻¹

B21: Trast_Her2_51 (Fab, V domains shown)
VH: EVQLVESGGGLVQPGGSLRLSCAASGFNIKDTYIHWVRQAPGKGLEWVARIYPTNGYTRYADSVKGRFTISADTSKNTAYLQMNSLRAEDTAVYYCAKHYDGWILAYWGQGTLVTVSS
VL: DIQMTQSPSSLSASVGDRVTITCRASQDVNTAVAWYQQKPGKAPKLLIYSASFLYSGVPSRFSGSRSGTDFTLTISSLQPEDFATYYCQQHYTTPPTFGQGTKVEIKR
notes: also called HCDR3 AKHYDGWILAY
Kd [17]: 1.03 nM
koff [17]: 1e-05 s⁻¹
kon [17]: 9680 M⁻¹ s⁻¹
Kd [18]: 2.89 nM
koff [18]: 4.35e-05 s⁻¹
kon [18]: 15100 M⁻¹ s⁻¹

B22: Trast_Her2_57 (Fab, V domains shown)
VH: EVQLVESGGGLVQPGGSLRLSCAASGFNIKDTYIHWVRQAPGKGLEWVARIYPTNGYTRYADSVKGRFTISADTSKNTAYLQMNSLRAEDTAVYYCAKPYYYFSDGLEYWGQGTLVTVSS
VL: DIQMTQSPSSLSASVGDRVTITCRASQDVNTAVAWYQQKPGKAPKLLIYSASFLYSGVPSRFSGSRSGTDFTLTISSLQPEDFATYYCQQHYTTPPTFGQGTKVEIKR
notes: also called HCDR3 AKPYYYFSDGLEY
Kd [19]: 15.6 nM
koff [19]: 0.000321 s⁻¹
kon [19]: 20600 M⁻¹ s⁻¹
Kd [20]: 34.8 nM
koff [20]: 0.000581 s⁻¹
kon [20]: 16700 M⁻¹ s⁻¹

B23: De novo trastuzumab HCDR3 variant ANDIYIQGYDLNR (Fab, V domains shown)
VH: EVQLVESGGGLVQPGGSLRLSCAASGFNIKDTYIHWVRQAPGKGLEWVARIYPTNGYTRYADSVKGRFTISADTSKNTAYLQMNSLRAEDTAVYYCANDIYIQGYDLNRWGQGTLVTVSS
VL: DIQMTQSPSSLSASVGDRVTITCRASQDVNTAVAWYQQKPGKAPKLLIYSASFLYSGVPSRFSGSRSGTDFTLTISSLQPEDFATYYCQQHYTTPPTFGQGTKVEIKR
notes: Fab format
log10(KD) [2]: -8.4 log10(M)
